Assay results taken from IntAct's records for PubMed 22056771.

Target: T1, atg7_yeast ATG7 (UniProt P38862)
T1 sequence: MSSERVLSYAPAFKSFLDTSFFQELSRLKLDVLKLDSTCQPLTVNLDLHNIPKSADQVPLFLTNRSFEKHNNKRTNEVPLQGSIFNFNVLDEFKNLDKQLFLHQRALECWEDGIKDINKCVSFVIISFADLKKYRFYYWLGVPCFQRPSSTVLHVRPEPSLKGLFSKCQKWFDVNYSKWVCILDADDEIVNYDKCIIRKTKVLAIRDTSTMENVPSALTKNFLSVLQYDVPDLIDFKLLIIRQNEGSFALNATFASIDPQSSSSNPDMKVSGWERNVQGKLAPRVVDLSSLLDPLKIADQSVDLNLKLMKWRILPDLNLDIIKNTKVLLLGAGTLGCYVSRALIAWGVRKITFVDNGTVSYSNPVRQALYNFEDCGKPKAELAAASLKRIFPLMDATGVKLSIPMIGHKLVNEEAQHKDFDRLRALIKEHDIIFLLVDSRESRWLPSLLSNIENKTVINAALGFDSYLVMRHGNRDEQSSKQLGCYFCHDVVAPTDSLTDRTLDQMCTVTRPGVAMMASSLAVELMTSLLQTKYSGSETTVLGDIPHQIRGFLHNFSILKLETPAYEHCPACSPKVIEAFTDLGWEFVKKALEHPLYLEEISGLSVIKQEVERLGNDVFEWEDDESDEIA

effect of a mutation on the interaction: increasing interaction
Substance: Microtubule-associated protein 1 light chain 3 beta (Homo sapiens) (from UniProt Q9GZQ8) K65Y
